Experiments:
Assay in all cases: holdup assay
Set-up in all cases: key: below the threshold = too weak to quantify, mostly under pKd 3.1 to 4
[1] = target: T1, MPDZ_12, O75970
T1 sequence (O75970 1857-1958, limits assumed, looked up): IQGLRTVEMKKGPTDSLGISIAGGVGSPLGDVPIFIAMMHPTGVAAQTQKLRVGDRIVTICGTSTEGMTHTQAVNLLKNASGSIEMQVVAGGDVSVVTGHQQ

[2] = target: NHERF4_2, Q86UT5
[3] = target: T2, ARHGAP21, Q5T5U3
T2 sequence (Q5T5U3 45-169, limits assumed, looked up): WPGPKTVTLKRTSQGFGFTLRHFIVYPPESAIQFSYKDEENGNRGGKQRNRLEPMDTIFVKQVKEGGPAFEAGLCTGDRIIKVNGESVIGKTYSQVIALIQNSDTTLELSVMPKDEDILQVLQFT

[4] = target: MAGI2_4, Q86UL8
MAGI2_4, Q86UL8, sequence (Q86UL8 772-865): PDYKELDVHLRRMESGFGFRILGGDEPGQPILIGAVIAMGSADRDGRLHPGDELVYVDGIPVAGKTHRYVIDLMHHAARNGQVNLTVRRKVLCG

[5] = target: FRMPD2_2, Q68DX3
FRMPD2_2, Q68DX3, sequence (Q68DX3 944-1038): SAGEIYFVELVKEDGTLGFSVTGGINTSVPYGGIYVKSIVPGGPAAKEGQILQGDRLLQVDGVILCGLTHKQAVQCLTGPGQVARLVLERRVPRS

[6] = target: T3, APBA1_1, Q02410
T3 sequence (Q02410 651-752, limits assumed, looked up): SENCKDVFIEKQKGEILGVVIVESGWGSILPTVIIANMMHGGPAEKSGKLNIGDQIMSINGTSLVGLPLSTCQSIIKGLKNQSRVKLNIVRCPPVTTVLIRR

[7] = target: DLG5_1, Q8TDM6
DLG5_1, Q8TDM6, sequence (Q8TDM6 617-713): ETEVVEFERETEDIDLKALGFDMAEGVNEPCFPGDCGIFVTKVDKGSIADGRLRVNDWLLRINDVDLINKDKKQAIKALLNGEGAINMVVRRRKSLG

[8] = target: T4, APBA2_1, Q99767
T4 sequence (Q99767 563-664, limits assumed, looked up): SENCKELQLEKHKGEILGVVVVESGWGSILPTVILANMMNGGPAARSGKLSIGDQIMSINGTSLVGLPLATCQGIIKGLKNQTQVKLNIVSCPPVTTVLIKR

[9] = target: T5, SHANK1, Q9Y566
T5 sequence (Q9Y566 658-767, limits assumed, looked up): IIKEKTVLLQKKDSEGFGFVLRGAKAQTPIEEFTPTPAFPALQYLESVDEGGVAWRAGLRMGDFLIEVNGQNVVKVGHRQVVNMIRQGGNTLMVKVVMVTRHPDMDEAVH

[10] = target: MAGI3_2, Q5TCQ9
MAGI3_2, Q5TCQ9, sequence (Q5TCQ9 398-503): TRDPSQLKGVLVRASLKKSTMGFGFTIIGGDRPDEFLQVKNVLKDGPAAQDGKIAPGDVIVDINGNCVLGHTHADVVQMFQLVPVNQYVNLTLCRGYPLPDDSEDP

[11] = target: GRID2IP_1, A4D2P6
GRID2IP_1, A4D2P6, sequence (A4D2P6 1-87): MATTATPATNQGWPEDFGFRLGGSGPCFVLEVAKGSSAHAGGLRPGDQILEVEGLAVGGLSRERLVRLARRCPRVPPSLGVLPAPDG

[12] = target: T6, MPDZ_5, O75970
T6 sequence (O75970 695-796, limits assumed, looked up): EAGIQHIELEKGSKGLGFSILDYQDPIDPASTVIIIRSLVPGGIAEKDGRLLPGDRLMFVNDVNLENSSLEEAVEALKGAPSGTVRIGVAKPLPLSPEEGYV

[13] = target: AHNAK1, Q09666
AHNAK1, Q09666, sequence (Q09666 4-100): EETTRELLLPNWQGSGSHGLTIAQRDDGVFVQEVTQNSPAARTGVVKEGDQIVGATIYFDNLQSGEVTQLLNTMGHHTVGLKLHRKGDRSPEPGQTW

[14] = target: NHERF4_1, Q86UT5-2
NHERF4_1, Q86UT5-2, sequence (Q86UT5 other isoform, or with tags, fused parts or gaps): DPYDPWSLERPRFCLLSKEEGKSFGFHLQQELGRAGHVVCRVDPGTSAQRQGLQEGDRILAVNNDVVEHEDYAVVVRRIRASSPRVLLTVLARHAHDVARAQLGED

[15] = target: IL16_1, Q14005
IL16_1, Q14005, sequence (Q14005 210-306): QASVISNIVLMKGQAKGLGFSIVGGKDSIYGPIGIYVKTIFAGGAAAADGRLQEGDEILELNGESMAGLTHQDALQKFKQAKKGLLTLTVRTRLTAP

[16] = target: T7, MPDZ_10, O75970
T7 sequence (O75970 1624-1722, limits assumed, looked up): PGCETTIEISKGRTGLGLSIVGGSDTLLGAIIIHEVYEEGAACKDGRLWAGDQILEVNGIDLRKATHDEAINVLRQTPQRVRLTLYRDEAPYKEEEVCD

[17] = target: T8, RADIL, Q96JH8
T8 sequence (Q96JH8 971-1071, limits assumed, looked up): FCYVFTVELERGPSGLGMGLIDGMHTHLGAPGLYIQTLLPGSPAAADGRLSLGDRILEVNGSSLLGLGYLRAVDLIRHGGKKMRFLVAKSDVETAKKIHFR

[18] = target: GRASP, Q7Z6J2
GRASP, Q7Z6J2, sequence (Q7Z6J2 96-193): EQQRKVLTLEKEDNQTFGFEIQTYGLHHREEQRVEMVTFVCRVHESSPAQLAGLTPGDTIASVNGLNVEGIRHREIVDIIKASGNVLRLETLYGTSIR

[19] = target: Inadl_9, Q8NI35
Inadl_9, Q8NI35, sequence (Q8NI35 1530-1615): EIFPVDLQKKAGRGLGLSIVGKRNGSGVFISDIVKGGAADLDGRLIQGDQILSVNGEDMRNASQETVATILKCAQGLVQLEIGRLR

[20] = target: LAP2, Q96RT1
LAP2, Q96RT1, sequence (Q96RT1 other isoform, or with tags, fused parts or gaps): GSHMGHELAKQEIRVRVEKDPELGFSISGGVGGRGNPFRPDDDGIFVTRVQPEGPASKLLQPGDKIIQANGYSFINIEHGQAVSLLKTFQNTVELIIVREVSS

[21] = target: DLG1_3, Q12959
DLG1_3, Q12959, sequence (Q12959 457-571): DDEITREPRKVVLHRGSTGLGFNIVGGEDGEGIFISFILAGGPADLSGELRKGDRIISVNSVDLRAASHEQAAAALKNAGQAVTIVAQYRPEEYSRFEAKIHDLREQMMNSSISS

[22] = target: LNX1_1, Q8TBB1
LNX1_1, Q8TBB1, sequence (Q8TBB1 261-371): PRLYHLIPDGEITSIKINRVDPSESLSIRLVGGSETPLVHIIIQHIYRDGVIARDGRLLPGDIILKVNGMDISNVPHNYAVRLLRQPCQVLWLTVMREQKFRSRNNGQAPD

[23] = target: T9, RAPGEF6, Q8TEU7
T9 sequence (Q8TEU7 525-625, limits assumed, looked up): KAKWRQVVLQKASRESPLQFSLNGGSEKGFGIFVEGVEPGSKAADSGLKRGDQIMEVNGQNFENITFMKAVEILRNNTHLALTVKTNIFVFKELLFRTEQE

[24] = target: GOPC, Q9HD26
[25] = target: SCRIB_1, Q14160
SCRIB_1, Q14160, sequence (Q14160 718-814): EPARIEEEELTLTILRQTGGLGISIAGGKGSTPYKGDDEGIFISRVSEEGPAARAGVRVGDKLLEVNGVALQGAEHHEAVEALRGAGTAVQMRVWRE

[26] = target: T10, PARD3B_1, Q8TEW8
T10 sequence (Q8TEW8 196-299, limits assumed, looked up): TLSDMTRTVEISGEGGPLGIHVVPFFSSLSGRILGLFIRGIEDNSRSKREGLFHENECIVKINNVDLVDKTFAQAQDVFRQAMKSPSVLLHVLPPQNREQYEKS

[27] = plain residues with an end cap or a label only (N-terminal biotin on a linker: ahx)
[28] = plain residues with an end cap or a label only (N-terminal biotin on a linker: ttds)

Measured: pKd

NHERF4_2, Q86UT5, sequence (Q86UT5 220-308): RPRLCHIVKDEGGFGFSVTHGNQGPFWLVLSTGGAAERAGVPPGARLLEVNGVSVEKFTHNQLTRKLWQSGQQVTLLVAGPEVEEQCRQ

EDEDEQVSAV [RAPGEF2, Q9Y4G8]
4.28: [9]; [27]
3.82: [16]; [27]
3.62: [20]; [27]
5.03: [5]; [27]
below the threshold: [1]; [27] | [2]; [27] | [3]; [27] | [4]; [27] | [6]; [27] | [7]; [27] | [8]; [27] | [10]; [27] | [11]; [27] | [12]; [27] | [13]; [27] | [14]; [27] | [17]; [27] | [19]; [27] | [21]; [27] | [22]; [27] | [23]; [27] | [24]; [27] | [25]; [27] | [26]; [27]
4.86: [18]; [27]
4.17: [15]; [27]

DEDQHTQITKV [PTEN, P60484]
3.91: [17]; [28]
3.64: [4]; [28]
4.83: [25]; [28]
below the threshold: [1]; [28] | [2]; [28] | [3]; [28] | [6]; [28] | [7]; [28] | [8]; [28] | [11]; [28] | [13]; [28] | [19]; [28] | [22]; [28] | [23]; [28]
4.72: [18]; [28]
3.98: [16]; [28]
3.46: [12]; [28]
4.35: [9]; [28]
3.51: [14]; [28]
3.71: [21]; [28]
4.03: [10]; [28]
4.19: [5]; [28]
3.82: [20]; [28]
4.24: [24]; [28]
3.72: [26]; [28]

LCKSHAFSHV [PDLIM7, Q9NR12;Q9NR12-1]
4.3: [10]; [27]
below the threshold: [1]; [27] | [2]; [27] | [3]; [27] | [4]; [27] | [5]; [27] | [6]; [27] | [7]; [27] | [8]; [27] | [9]; [27] | [11]; [27] | [12]; [27] | [13]; [27] | [14]; [27] | [19]; [27] | [20]; [27] | [21]; [27] | [23]; [27] | [24]; [27] | [25]; [27] | [26]; [27]
4.07: [16]; [27]
3.99: [17]; [27]

KKNKDKEYYV [NRXN1, Q9ULB1]
4.6: [10]; [27]
3.97: [19]; [27]
4.2: [17]; [27]
below the threshold: [1]; [27] | [2]; [27] | [3]; [27] | [4]; [27] | [5]; [27] | [6]; [27] | [7]; [27] | [8]; [27] | [9]; [27] | [11]; [27] | [13]; [27] | [14]; [27] | [15]; [27] | [16]; [27] | [18]; [27] | [20]; [27] | [21]; [27] | [22]; [27] | [23]; [27] | [24]; [27] | [25]; [27] | [26]; [27]
3.85: [12]; [27]

TEEEVQDTRL [CFTR, P13569]
5.07: [9]; [28]
below the threshold: [1]; [28] | [2]; [28] | [3]; [28] | [4]; [28] | [5]; [28] | [6]; [28] | [7]; [28] | [8]; [28] | [10]; [28] | [11]; [28] | [12]; [28] | [13]; [28] | [14]; [28] | [15]; [28] | [16]; [28] | [17]; [28] | [18]; [28] | [19]; [28] | [20]; [28] | [21]; [28] | [22]; [28] | [23]; [28]
5.42: [25]; [28]
3.95: [26]; [28]

CLDTSRETDL [KCNA5, P22460]
3.78: [3]; [28]
3.5: [9]; [28] | [15]; [28] | [20]; [28]
4.76: [25]; [28]
3.91: [22]; [28]
3.57: [21]; [28]
below the threshold: [1]; [28] | [2]; [28] | [4]; [28] | [5]; [28] | [6]; [28] | [7]; [28] | [8]; [28] | [10]; [28] | [11]; [28] | [12]; [28] | [13]; [28] | [14]; [28] | [16]; [28] | [17]; [28] | [18]; [28] | [19]; [28] | [23]; [28] | [24]; [28] | [26]; [28]
